# Square brackets hold non-standard residues; d marks the D form. Ends that are not written are not given here. Tyr(3-NO2) = N[C@@H](Cc1ccc(O)c([N+](=O)[O-])c1)C(=O)O; 2Abz = Nc1ccccc1C(=O)O
# Columns and labels:
# Format in all cases: biochemical
# [1] = target: uPA (Homo sapiens, UniProt P00749); test: FRET peptide cleavage efficiency with uPA
# [2] = target: T1, MMP-7 (Homo sapiens, UniProt P09237); test: FRET peptide cleavage efficiency with MMP-7 (standard pH 7.5; also pH 6.5)
# T1 construct: purchased SIGMA CC1059
# T1 sequence (P09237 95-267): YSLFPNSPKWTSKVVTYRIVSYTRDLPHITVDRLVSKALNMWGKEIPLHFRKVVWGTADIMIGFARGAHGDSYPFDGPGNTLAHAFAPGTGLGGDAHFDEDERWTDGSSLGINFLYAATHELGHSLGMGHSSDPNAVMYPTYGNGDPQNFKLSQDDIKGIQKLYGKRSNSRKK
# [3] = target: T2, MMP-2 (Homo sapiens, UniProt P08253); test: FRET peptide cleavage efficiency with MMP-2
# T2 construct: purchased SIGMA PF023
# T2 sequence (P08253 110-660): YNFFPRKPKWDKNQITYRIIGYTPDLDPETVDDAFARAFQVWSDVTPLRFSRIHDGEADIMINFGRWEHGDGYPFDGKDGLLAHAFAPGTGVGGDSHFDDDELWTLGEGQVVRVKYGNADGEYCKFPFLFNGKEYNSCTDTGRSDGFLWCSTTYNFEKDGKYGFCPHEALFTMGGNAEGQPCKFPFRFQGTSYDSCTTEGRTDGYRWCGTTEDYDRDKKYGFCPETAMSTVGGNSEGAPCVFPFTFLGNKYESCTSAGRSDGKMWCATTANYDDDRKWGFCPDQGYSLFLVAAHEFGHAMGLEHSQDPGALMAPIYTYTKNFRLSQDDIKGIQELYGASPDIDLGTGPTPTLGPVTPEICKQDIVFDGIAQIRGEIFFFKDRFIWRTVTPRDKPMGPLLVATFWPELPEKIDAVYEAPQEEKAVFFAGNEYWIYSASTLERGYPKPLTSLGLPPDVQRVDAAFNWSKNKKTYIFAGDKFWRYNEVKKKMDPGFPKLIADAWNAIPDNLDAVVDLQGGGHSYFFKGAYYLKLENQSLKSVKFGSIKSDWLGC
# [4] = target: T3, matriptase (Homo sapiens, UniProt Q9Y5Y6); test: FRET peptide cleavage efficiency with matriptase
# T3 construct: purchased R&D Systems 3946-SEB
# T3 sequence (Q9Y5Y6 615-855 limits assumed): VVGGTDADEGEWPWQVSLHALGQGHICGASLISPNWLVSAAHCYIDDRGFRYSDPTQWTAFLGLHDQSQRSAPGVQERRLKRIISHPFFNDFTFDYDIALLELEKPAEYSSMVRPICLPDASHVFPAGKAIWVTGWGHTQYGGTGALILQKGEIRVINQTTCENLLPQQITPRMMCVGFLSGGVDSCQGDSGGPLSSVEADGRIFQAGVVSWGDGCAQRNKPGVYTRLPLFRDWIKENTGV
# [5] = target: T4, MMP-9 (Homo sapiens, UniProt P14780); test: FRET peptide cleavage efficiency with MMP-9 (standard pH 7.5; also pH 6.5)
# T4 construct: purchased SIGMA PF024
# [6] = t = 15 min, 200 uM linker, 1 ug/ml protease, 37° C., buffer A pH 8.5
# [7] = 200 uM linker, 1 ug/ml protease, 37° C., buffer A pH 8.5
# [8] = t = 15 min, 200 uM linker, 1 ug/ml protease, 37° C., buffer C pH 7.5
# [9] = t = 60 min, 200 uM linker, 1 ug/ml protease, 37° C., buffer C pH 7.5
# [10] = t = 120 min, 200 uM linker, 1 ug/ml protease, 37° C., buffer C pH 7.5
# [11] = 200 uM linker, 1 ug/ml protease, 37° C., buffer B pH 9.0
# [12] = t = 15 min, standard conditions (Table 8)
# [13] = t = 60 min, standard conditions (Table 8)
# [14] = t = 120 min, standard conditions (Table 8)
# T4 sequence (P14780 94-707): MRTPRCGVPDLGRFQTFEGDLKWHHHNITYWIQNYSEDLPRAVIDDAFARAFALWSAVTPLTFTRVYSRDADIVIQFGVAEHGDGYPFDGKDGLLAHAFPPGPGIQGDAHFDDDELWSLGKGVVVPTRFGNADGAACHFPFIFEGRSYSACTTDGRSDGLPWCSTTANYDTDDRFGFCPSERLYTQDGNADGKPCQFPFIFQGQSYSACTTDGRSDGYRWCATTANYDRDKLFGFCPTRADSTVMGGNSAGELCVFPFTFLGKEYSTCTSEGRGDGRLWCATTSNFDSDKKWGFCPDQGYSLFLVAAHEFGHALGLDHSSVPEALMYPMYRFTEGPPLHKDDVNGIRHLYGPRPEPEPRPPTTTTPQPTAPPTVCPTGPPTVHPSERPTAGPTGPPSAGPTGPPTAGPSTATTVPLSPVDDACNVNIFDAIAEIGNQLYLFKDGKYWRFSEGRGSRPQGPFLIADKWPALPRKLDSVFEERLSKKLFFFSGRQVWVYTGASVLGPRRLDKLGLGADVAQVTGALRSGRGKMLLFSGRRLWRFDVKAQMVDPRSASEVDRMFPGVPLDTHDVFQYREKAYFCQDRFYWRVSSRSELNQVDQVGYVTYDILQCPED
Sequence,"% cleavage uPA t = 15 min [1, 6]","% cleavage uPA t = 60 min [1, 7]","% cleavage uPA t = 120 min [1, 7]",% cleavage MMP-7 t = 15 min ([2]; t = 15 min (Table 9)),% cleavage MMP-7 t = 60 min ([2]; t = 60 min (Table 9)),% cleavage MMP-7 t = 120 min ([2]; t = 120 min (Table 9)),% cleavage MMP-2 t = 15 min ([3]; t = 15 min (Table 9)),"% cleavage MMP-2 t = 15 min [3, 8]",% cleavage MMP-2 t = 60 min ([3]; t = 60 min (Table 9)),"% cleavage MMP-2 t = 60 min [3, 9]",% cleavage MMP-2 t = 120 min ([3]; t = 120 min (Table 9)),"% cleavage MMP-2 t = 120 min [3, 10]","% cleavage Matriptase t = 15 min [4, 11]","% cleavage Matriptase t = 60 min [4, 11]","% cleavage Matriptase t = 120 min [4, 11]",% cleavage MMP-9 t = 15 min ([5]; t = 15 min (Table 9)),% cleavage MMP-9 t = 60 min ([5]; t = 60 min (Table 9)),% cleavage MMP-9 t = 120 min ([5]; t = 120 min (Table 9)),further results
SGRVANYFGKL ([2Abz]SGRVANYFGKL[Tyr(3-NO2)]-NH2) [LNK054],33%,100%,100%,0%,0%,0%,78%,78%,100%,100%,100%,100%,0%,0%,0%,49%,100%,100%,
"SGRVQPLVD (not fully specified (N-terminus, C-terminus)) [LNK047]",,,,20%,65%,88%,2%,,5%,,9%,,,,,1%,2%,4%,"% vcleavage uPA t = 15 min [1, 12]: 1%; % cleavage uPA t = 60 min ([1]; standard conditions (Table 8)): 1%; % cleavage uPA t = 120 min ([1]; standard conditions (Table 8)): 2%; % cleavage MMP-7 t = 15 min [2, 12]: 20%; % cleavage MMP-7 t = 60 min [2, 13]: 65%; % cleavage MMP-7 t = 120 min [2, 14]: 88%; % cleavage MMP-2 t = 60 min [3, 13]: 5%; % cleavage MMP-2 t = 120 min [3, 14]: 9%; % cleavage Matriptase t = 15 min ([4]; standard conditions (Table 8)): 4%; % cleavage Matriptase t = 60 min ([4]; standard conditions (Table 8)): 17%; % cleavage Matriptase t = 120 min ([4]; standard conditions (Table 8)): 33%; % cleavage MMP-9 t = 15 min [5, 12]: 1%; % cleavage MMP-9 t = 60 min [5, 13]: 2%; % cleavage MMP-9 t = 120 min [5, 14]: 4%"
RGRRPLGLAG ([2Abz]RGRRPLGLAG[Tyr(3-NO2)]-NH2) [LNK049],0%,0%,0%,1%,4%,8%,89%,89%,100%,100%,100%,100%,16%,70%,100%,56%,100%,100%,
RGRRPLGLAGGSG ([2Abz]RGRRPLGLAGGSG[Tyr(3-NO2)]-NH2) [LNK051],0%,0%,0%,3%,8%,14%,73%,73%,100%,100%,100%,100%,22%,72%,100%,62%,100%,100%,

# Source: patent publication US20240400614A1, “CLEAVABLE PEPTIDES AND METHODS OF USE THEREOF” (Bright Peak Therapeutics AG, priority 2023, published 2024)
